How the values were obtained:
[1] = molecular target: T1, 新型冠状病毒囊膜蛋白受体结合域 WH-RBD-TFc (SARS-CoV-2 S蛋白 RBD 319-541 - 凝血酶位点 - 人源IgG1 Fc) (SARS-CoV-2; human, UniProt P0DTC2 319-541); test: ELISA, WH-RBD-TFc coated at 4 μg/mL, Fab titrated, detected with HRP anti-FLAG antibody
[2] = molecular target: T1, 新型冠状病毒囊膜蛋白受体结合域 WH-RBD-TFc (SARS-CoV-2 …); test: ELISA, WH-RBD-TFc coated at 4 μg/mL, IgG titrated, detected with HRP goat anti-human IgG (Fab)
[3] = molecular target: T1, 新型冠状病毒囊膜蛋白受体结合域 WH-RBD-TFc (SARS-CoV-2 …); test: BLI, biotinylated WH-RBD-TFc immobilised (40 μg/ml), IgG titrated in solution (both partners bivalent)

B1: Fab-F1-A3 (Fab, V domains shown)
VH: QVQLVESGGGLVQPGGSLRLSCAASGFTVSSNYMSWVRQAPGKGLEWVSVIYSGGSTYYADSVKGRFTISRDNSKNTLYLQMNSLRAEDTAVYYCARGDGSDDYYYGMDVWGQGTTVTVSS
VL: QSVVTQPPSVSGAQGQRVFISCTGNGANIGMGYDVHWYQQLPGRAPKLLIFGNTNRPSGVPDRFSASRSGTSASLAITGLQTADEADYYCQSYDGNLRASVFGGGTKLTVLG
notes: also called 抗体Fab F1-A3
[1]
  EC50: 4 nM

B2: IgG-F1-A3 (antibody, V domains shown)
VH: B1 VH
VL: B1 VL
[2]
  EC50: ~0.78 nM
[3]
  Kd: 0.013 nM

From patent CN113388029A (WUHAN INST VIROLOGY CAS, dated 2021)
